In patent publication US20130022605A1 (published 2013):
Substitutions are numbered along the chain they refer to.

T1: mouse TNFR1 on L929 cells (mouse, UniProt P25118 30-454)
T1 sequence (looked up): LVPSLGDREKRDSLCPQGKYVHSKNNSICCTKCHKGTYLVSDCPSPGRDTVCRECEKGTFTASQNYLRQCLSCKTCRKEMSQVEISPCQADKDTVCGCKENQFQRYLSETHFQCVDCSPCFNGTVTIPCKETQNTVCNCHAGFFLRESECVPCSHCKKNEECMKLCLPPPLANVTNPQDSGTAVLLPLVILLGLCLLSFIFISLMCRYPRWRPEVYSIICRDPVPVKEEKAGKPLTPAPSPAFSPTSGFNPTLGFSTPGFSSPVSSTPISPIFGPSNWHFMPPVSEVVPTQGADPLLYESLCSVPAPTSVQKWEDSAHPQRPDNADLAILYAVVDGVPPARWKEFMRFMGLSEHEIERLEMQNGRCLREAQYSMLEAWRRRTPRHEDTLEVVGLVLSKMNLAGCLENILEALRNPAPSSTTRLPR

T2: TNF receptor 1 Fc fusion protein (R&D Systems) (human, UniProt P19438 30-211, limits assumed)
T2 construct: bought; also called recombinant TNF receptor 1 (p55); TNFR1-Fc; not shown: Fc part of the bought fusion protein; not described
T2 sequence: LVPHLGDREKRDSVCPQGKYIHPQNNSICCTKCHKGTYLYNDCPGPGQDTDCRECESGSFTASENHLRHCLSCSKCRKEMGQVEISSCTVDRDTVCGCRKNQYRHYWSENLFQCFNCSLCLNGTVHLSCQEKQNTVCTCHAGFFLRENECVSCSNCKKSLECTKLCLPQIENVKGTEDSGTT

T3: human TNFR1 on HeLa cells (human, UniProt P19438 30-455)
T3 sequence (looked up): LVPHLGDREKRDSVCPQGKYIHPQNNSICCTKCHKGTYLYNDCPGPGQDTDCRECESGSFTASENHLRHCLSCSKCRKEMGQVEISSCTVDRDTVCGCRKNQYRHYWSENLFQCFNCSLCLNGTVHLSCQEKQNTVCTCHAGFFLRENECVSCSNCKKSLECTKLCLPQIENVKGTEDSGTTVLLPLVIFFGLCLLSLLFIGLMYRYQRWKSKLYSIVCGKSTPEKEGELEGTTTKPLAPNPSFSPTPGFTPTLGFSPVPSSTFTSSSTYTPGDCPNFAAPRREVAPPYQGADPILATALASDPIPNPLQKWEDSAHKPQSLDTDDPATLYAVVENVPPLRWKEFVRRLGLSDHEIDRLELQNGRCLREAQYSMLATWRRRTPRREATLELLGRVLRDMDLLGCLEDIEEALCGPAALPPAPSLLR

B1: TAR2m-21 (other)
chain: EVQLLESGGGLVQPGGSLRLSCAASGFTFTRYSMGWVRQAPGKGLEWVSRIDSYGRGTYYADSVKGRFTISRDNSKNTLYLQMNSLRAEDTAVYYCAKISQFGSNAFDYWGQGTLVTVSS
B2: TAR2m-21-43 (other)
chain: B1 chain with V37L, Y60D
B3: TAR2m-21-06 (other)
chain: B1 chain with V37I
B4: TAR2m-21-07 (other)
chain: B1 chain with T30S, Y32C, V37L, Q101K
B5: TAR2m-21-10 (other)
chain: B1 chain with V37L
B6: TAR2m-21-48 (other)
chain: B1 chain with V12I, V37L, Y60D, A61T, K76R
B7: TAR2m-21-23 (other)
VH: B1 chain with T30N, V37L, A61E, S63P, T69S, L115Q
B8: TAR2h-41 (other)
chain: EVQLLESGGGLVQPGGSLRLSCAASGFTFDKYQMGWVRQAPGKGLEWVSFIDSNGHHTYYADSVKGRFTISRDNSKNTLYLQMNSLRAEDTAVYYCAELDNLSITPFDYWGQGTLVTVSS
notes: anti-human TNFR1 dAb
B9: TAR2h-22 (other)
chain: EVQLLESGGGLVQPGGSLRLSCAASGFTFGEYNMAWVRQAPGKGQEWVSFISTGGHVTYYADSVKGRFTISRDNSKNTLYLQMNSLRAEDTAVYYCAKFSVRFRSSIFDYWGQGTLVTVSS
notes: anti-human TNFR1 dAb
B10: TAR2h-27 (other)
chain: EVQLLESGGGLVQPGGSLRLSCAASGFTFTDYNMAWVRQAPGKGLEWVSFISQEGHHTYYADSVKGRFTISRDNSKNTLYLQMNSLRAEDTAVYYCAKFSTIATLSLFDYWGQGTLVTVSS
notes: anti-human TNFR1 dAb
B11: TAR2h-10 (other)
chain: EVQLLESGGGLVQPGGSLRLSCAASGFTFEWYWMGWVRQAPGKGLEWVSAISGSGGSTYYADSVKGRFTISRDNSKNTLYLQMNSLRAEDTAVYYCAKVKLGGGPNFDYWGQGTLVTVSS
notes: anti-human TNFR1 dAb; tied to the entry under the name TAR2-10; also called TAR2-10
B12: TAR2h-10-1 (other)
chain: B11 chain with S85N, W110R
notes: anti-human TNFR1 dAb
B13: TAR2h-10-3 (other)
chain: B11 chain with S21T
notes: anti-human TNFR1 dAb
B14: TAR2h-10-4 (other)
chain: B11 chain with V37I
notes: anti-human TNFR1 dAb
B15: TAR2h-16 (other)
chain: EVQLLESGGGLVQPGGSLRLSCAASGFTFGNYDMQWVRQAPGKGLEWVSSIDGTGGTTYYADSVKGRFTISRDNSKNTLYLQMNSLRAEDTAVYYCAQETNAFDYWGQGTLVTVSS
notes: anti-human TNFR1 dAb
B16: TAR2h-14 (other)
chain: EVQLLESGGGLVQPGGSLRLSCAASGFTFDQYDMSWVRQAPGKGLEWVSLIDPSGGHTYYADSVKGRFTISRNNSKNTLYLQMNSLRAEDTAVYYCAKPVFSDWPAVEFDYWGQGTLVTVSS
notes: anti-human TNFR1 dAb
B17: TAR2h-15 (other)
chain: EVRLLESGGGLVQPGGSLRLSCAASGFTFGKYTMTWVRQAPGKGLEWVSHISDDGNSTYYADSVKGRFTISRDNSKNTLYLQMNSLRAEDTAVYYCAKVPILAPRNLFDYWGQGTLVTVSS
notes: anti-human TNFR1 dAb
B18: TAR2h-51 (other)
chain: EVQLLESGGGLVQPGGSLRLSCAASGFTFATYNMSWVRQAPGKGLEWVSAIDAGGMHTYYADSVKGRFTISRDNSKNTLYLQMNSLRAEDTAVYYCAKGTEPFDYWGQGTLVTVSS
notes: anti-human TNFR1 dAb
B19: TAR2h-44 (other)
chain: EVQLLESGGGLVQPGGSLRLSCAASGFTFLQYPMVWVRQAPGKGLEWVSSILAPGGPTYYADSVKGRFTISRDNSKNSLYLQMNSLRAEDTAVYYCAKHPTHTPHPNFDYWGQGTLVTVSS
notes: anti-human TNFR1 dAb
B20: TAR2h-29 (other)
chain: EVQLLESGGGLVQPGGSLRLSCAASGFTFATYNMGWVRQAPGKGLEWVSSIAWLGSETYYADSVKGRFTISRDNSKNTLYLQMNSLRAEDTAVYYCAKHCKAECTGDLFDYWGQGTLVTVSS
notes: anti-human TNFR1 dAb
B21: TAR2h-17 (other)
chain: EVQLLESGGGLVQPGGSLRLSCAASGFTFGGYQMGWVRQAPGKGLEWVSFIDFTGAHTYYADSVKGRFTISRDNSKNTLYLQMNSLRAEDTAVYYCAKLSDDLTLPERFPFDYWGQGTLVTVSS
notes: anti-human TNFR1 dAb
B22: TAR2h-47 (other)
chain: EVQLLESGGGLVQPGGSLRLSCAASGFTFPVYNMAWVRQAPGKGLEWVSFIAGNGQQTYYADSVKGRFTISRDNSKNTLYLQMNSLRAEDTAVYYCAKFASKVSPMSLTDFDYWGQGTLVTVSS
notes: anti-human TNFR1 dAb
B23: TAR2h-42 (other)
chain: EVQLLESGGGLVQPGGSLRLSCAASGFTFAKYNMYWVRQAPGKGLEWVSAISPKGQHTYYADSVKGRFTISRDNSKNTLYLQMNSLRAEDTAVYYCAEGMGSDAITFDYWGQGTLVTVSS
notes: anti-human TNFR1 dAb
B24: TAR2h-34 (other)
chain: EVQLLESGGGLVQPGGSLRLSCAASGFTFPEYGMAWVRQAPGKGLEWVSTISHGGEHTYYADSVKGRFTISRDNSKNTLYLQMNSLRAEDTAVYYCAQHPVSHPKFDYWGQGTLVTVSS
notes: anti-human TNFR1 dAb
B25: TAR2h-10-55 (other)
chain: B11 chain with T28P, G56D, L81Q, T91A, D108G, W110R
B26: TAR2h-10-7 (other)
chain: B11 chain with E89K, W110R
B27: TAR2h-18 (other)
chain: EVQLLESGGGLVQPGGSLRLSCAASGFTFADYNMTWVRQAPGKGLEWVSWIDQEGVFTYYADSVKGRFTISRDNSKNTLYLQMNSLRAEDTAVYYCAKDFSAAVMLRTSFDYWGQGTLVTVSS
B28: TAR2h-13 (other)
chain: EVQLLESGGGLVQPGGSLRLSCAASGFTFPADEMYWVRQAPGKGLEWVSSIGWPGGATYYADSVKGRFTISRDNSKNTLYLQMNSLRAEDTAVYYCAKYGRNFDYWGQGTLVTVSS
B29: TAR2h-67 (other)
chain: EVQLLESGGGLVQPGGSLRLSCAASGFTFEDYPMAWVRQAPGKGLEWVSFIGLKGIHTYYADSVKGRFTISRDNSKNTLYLQMNSLRAEDTAVYYCAKDLNNFDYWGQGTLVTVSS
B30: TAR2h-35 (other)
chain: EVQLLESGGGLVQPGGSLRLSCAASGFTFDAYNMFWVRQAPGKGLEWVSAISPSGRETYYADSVKGRFTISRDNSKNTLYLQMNSLRAEDTAVYYCAKRYPDFDYWGQGTLVTVSS
B31: TAR2h-12 (other)
chain: EVQLLESGGGLVQPGGSLRLSCAASGFTFVAYNMGWVRQAPGKGLEWVSFIDMYGAKTYYADSVKGRFTISRDNSKNTLYLQMNSLRAEDTAVYYCAKLCLMDCSGDIFDYWGQGTLVTVSS

molecular target: T1, mouse TNFR1 on L929 cells; assay: cell-based or functional assay

L929 Cell Assay, Activity (IC50) | Binder
400 nM | B1
6 nM | B2
100 nM | B3
10 nM | B4
30 nM | B5
6 nM | B6
1 nM | B7

molecular target: T2, TNF receptor 1 Fc fusion protein (R&D …); assay: receptor binding assay

IC50 | Binder
8 nM | B8
200 nM | B9
30 nM | B10
30 nM | B11
10 nM | B12
11 nM | B13
8 nM | B14
30 nM | B15
30 nM | B16
5 nM | B17
80 nM | B18
10 nM | B19
300 nM | B20
100 nM | B21
8 nM | B22
15 nM | B23
300 nM | B24

molecular target: T3, human TNFR1 on HeLa cells; assay: cell-based or functional assay

HeLa IL-8 Cell Assay, Activity (IC50) | Binder
30 nM | B8
3000 nM | B10
50 nM | B11
20 nM | B25
30 nM | B26
200 nM | B15
300 nM | B16
400 nM | B27
300 nM | B19
300 nM | B28
300 nM | B20
300 nM | B29
10 nM | B23
800 nM | B30
100 nM | B31
